Consider one substance from publication PMC3032713.

The test deals with RBSDV P9-1 as used in vitro (data not shown) (Rice black-streaked dwarf virus). Kind of test: not stated; P9-1 dimers in vitro; data not shown.

The term stoichiometry N denotes a count of units in the complex or per binding partner.

On to “RBSDV P9-1 as used in vitro (data not shown) (natural protein)”, for which the stoichiometry N stood at 2.
